Experimental data reported in patent US20190233519A1 (published 2019).

B1: BCP-2 (BCP-K311) (Keytruda-9GS-A34311) (bispecific antibody)
heavy: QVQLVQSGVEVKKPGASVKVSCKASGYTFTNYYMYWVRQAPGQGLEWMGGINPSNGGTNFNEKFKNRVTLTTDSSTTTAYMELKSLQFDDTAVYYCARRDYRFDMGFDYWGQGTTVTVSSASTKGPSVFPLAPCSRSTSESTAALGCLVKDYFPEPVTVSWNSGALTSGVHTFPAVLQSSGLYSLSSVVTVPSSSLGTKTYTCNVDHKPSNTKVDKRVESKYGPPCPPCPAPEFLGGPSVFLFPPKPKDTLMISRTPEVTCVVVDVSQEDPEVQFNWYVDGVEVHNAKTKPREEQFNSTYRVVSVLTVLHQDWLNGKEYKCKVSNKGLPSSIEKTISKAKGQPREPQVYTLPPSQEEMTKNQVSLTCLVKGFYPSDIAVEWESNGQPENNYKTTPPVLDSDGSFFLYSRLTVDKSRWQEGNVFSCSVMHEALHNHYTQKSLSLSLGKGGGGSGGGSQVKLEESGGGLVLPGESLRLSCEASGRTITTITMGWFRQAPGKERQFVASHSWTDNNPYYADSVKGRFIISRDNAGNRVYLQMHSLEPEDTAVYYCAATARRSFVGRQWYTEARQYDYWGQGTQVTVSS
light: EIVLTQSPATLSLSPGERATLSCRASKGVSTSGYSYLHWYQQKPGQAPRLLIYLASYLESGVPARFSGSGSGTDFTLTISSLEPEDFAVYYCQHSRDLPLTFGGGTKVEIKRTVAAPSVFIFPPSDEQLKSGTASVVCLLNNFYPREAKVQWKVDNALQSGNSQESVTEQDSKDSTYSLSSTLTLSKADYEKHKVYACEVTHQGLSSPVTKSFNRGEC
B2: BCP-311K (A34311-9GS-Keytruda) (bispecific antibody)
heavy: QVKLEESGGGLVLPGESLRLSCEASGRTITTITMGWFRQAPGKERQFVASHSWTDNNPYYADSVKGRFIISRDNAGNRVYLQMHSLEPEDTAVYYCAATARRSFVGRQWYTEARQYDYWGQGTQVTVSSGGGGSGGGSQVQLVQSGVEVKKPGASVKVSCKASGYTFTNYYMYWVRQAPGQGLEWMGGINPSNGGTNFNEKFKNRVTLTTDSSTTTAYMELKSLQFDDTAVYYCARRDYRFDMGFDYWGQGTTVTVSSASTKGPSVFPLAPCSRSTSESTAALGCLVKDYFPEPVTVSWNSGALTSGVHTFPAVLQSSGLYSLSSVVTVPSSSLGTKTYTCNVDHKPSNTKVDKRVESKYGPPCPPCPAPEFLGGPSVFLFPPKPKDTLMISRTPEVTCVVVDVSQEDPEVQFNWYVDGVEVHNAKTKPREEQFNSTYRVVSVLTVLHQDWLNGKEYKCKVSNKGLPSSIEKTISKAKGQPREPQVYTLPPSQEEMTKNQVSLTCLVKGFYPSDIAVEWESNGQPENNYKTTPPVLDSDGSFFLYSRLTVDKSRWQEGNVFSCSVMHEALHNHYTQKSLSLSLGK
light: B1 light
B3: BCP-75 (AS07189TKDVH11-mutated hIgG1 hinge-Keytruda) (bispecific antibody)
heavy: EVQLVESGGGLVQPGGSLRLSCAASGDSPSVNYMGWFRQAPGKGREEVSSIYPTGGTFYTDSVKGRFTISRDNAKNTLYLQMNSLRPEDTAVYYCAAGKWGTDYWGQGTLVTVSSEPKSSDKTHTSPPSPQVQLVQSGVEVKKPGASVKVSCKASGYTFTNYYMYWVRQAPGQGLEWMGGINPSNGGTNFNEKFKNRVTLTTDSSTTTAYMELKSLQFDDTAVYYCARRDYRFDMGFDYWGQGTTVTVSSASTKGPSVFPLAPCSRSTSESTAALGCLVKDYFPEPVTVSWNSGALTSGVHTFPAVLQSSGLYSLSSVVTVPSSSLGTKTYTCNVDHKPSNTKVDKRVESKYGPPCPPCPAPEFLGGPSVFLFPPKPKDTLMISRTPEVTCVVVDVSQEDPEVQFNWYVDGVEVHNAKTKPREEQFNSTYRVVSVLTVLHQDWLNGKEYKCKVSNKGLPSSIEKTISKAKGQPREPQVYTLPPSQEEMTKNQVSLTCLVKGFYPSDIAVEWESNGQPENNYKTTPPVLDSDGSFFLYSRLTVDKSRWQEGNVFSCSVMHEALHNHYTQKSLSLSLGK
light: B1 light
B4: BCP-74 (AS07014VH11-mutated hIgG1 hinge-Keytruda) (bispecific antibody)
heavy: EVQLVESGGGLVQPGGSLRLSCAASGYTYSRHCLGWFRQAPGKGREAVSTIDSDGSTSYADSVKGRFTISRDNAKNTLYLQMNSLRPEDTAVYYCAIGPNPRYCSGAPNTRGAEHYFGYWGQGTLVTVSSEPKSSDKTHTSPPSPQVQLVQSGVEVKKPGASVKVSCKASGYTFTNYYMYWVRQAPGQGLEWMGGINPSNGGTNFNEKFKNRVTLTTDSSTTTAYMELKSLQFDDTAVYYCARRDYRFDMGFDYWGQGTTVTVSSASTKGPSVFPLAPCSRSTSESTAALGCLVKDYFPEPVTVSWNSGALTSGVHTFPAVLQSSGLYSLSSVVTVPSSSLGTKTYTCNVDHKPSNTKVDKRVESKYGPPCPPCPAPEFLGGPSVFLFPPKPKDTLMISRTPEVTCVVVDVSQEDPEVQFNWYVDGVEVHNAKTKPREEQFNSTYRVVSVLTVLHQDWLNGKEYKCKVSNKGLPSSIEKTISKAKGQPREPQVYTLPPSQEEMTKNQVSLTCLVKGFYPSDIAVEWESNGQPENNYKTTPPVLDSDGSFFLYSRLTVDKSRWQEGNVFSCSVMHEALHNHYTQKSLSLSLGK
light: B1 light
B5: BCP-73 (A34311VH11-mutated hIgG1 hinge-Keytruda) (bispecific antibody)
heavy: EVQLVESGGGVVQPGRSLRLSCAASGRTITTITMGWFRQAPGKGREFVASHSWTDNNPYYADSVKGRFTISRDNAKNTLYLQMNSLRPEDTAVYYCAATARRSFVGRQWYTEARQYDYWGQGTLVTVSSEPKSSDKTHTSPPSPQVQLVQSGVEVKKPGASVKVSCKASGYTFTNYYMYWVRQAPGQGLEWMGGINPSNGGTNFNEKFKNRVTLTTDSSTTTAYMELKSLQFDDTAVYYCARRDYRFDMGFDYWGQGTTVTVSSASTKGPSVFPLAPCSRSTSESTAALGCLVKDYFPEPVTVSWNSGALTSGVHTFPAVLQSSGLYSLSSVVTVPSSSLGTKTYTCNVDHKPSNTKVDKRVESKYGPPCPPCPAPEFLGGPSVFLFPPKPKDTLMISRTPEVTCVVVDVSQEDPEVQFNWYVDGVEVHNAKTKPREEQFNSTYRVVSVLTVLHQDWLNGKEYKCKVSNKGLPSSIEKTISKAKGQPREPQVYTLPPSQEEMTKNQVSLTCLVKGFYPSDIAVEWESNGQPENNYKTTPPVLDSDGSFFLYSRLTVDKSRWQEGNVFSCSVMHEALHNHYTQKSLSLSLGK
light: B1 light
B6: BCP-78 (A34311VH11-mutated hIgG1 hinge-Opdivo) (bispecific antibody)
heavy: EVQLVESGGGVVQPGRSLRLSCAASGRTITTITMGWFRQAPGKGREFVASHSWTDNNPYYADSVKGRFTISRDNAKNTLYLQMNSLRPEDTAVYYCAATARRSFVGRQWYTEARQYDYWGQGTLVTVSSEPKSSDKTHTSPPSPQVQLVESGGGVVQPGRSLRLDCKASGITFSNSGMHWVRQAPGKGLEWVAVIWYDGSKRYYADSVKGRFTISRDNSKNTLFLQMNSLRAEDTAVYYCATNDDYWGQGTLVTVSSASTKGPSVFPLAPCSRSTSESTAALGCLVKDYFPEPVTVSWNSGALTSGVHTFPAVLQSSGLYSLSSVVTVPSSSLGTKTYTCNVDHKPSNTKVDKRVESKYGPPCPPCPAPEFLGGPSVFLFPPKPKDTLMISRTPEVTCVVVDVSQEDPEVQFNWYVDGVEVHNAKTKPREEQFNSTYRVVSVLTVLHQDWLNGKEYKCKVSNKGLPSSIEKTISKAKGQPREPQVYTLPPSQEEMTKNQVSLTCLVKGFYPSDIAVEWESNGQPENNYKTTPPVLDSDGSFFLYSRLVDKSRWQEGNVFSCSVMHEALHNHYTQKSLSLSLGK
light: not shown
B7: A36566 HCAb (Fc fusion)
heavy: EVQLVESGGGLVQVGDSLRLSCAASGRSFENYAIGWFRQAPGKEREFVATISWIPRTAYSTTYYADSVKGRFTISGDNSKNTVYLQMTSLKPEDTAVYYCAAGGATGPLALDSHYGYWGQGTQVTVSS
B8: A36922 HCAb (Fc fusion)
heavy: QVQLVESGGGLVQAGGSLRLSCAASGRLSRTFTMGWYRQAPGKQRDLVASITTSGSTNYADSVKGRFTISRDNAKNTVILQMNSLVPEDTAVYYCRFLSASTAAWGQGTQVTIST
B9: AS07014 HCAb (Fc fusion)
heavy: QVHLVESGGGSVQAGGSLRLSCAASGYTYSRHCLGWFRQTPGKEREAVATIDSDGSTSYADSVKGRFTISSDNAKNTLYLQMNSLKPEDTAMYYCAIGPNPRYCSGAPNTRGAEHYFGYWAQGTQVTVSS
B10: AS07189 HCAb (Fc fusion)
heavy: QVQLVESGGGSVQAGGSLRLSCAASGDSPSVNYMGWFRRAPEKQREQREEVASIYPTGGTFYTDSVKGRFTISRDNAKNTLYLQMTALKPEDTAMYYCAAGKWGTDYWGQGTQVIVSS
B11: AS02640 sdAb (VHH)
VHH: QVQLVESGGGVVQPGRSLRLSCAASGRTITTITMGWFRQAPGKGLEFVASHSWTDNNPYYADSVKGRFIISRDNSKNRLYLQMNSLRAEDTAVYYCAATARRSFVGRQWYTEARQYDYWGQGTLVTVSS
B12: A34311 sdAb (VHH)
VHH: QVKLEESGGGLVLPGESLRLSCEASGRTITTITMGWFRQAPGKERQFVASHSWTDNNPYYADSVKGRFIISRDNAGNRVYLQMHSLEPEDTAVYYCAATARRSFVGRQWYTEARQYDYWGQGTQVTVSS

biological target: T1, human PD-1 expressed on CHO cells (human, UniProt Q15116 25-288); assay: FACS ligand competition (hPD-L1 Fc)
T1 sequence (Q15116 25-288): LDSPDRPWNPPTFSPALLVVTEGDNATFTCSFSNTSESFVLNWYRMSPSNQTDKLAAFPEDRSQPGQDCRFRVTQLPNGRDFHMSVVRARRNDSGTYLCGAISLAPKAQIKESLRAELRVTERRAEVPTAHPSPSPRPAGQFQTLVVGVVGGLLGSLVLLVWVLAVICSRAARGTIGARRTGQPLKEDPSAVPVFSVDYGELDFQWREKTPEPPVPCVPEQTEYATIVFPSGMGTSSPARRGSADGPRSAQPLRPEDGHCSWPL

| Binder | IC50 [nM] |
| --- | --- |
| B1 | 16.5 |
| B2 | 33.7 |

biological target: T2, CTLA-4-His protein (UniProt P16410 37-161); assay: SPR
T2 sequence (P16410 37-161): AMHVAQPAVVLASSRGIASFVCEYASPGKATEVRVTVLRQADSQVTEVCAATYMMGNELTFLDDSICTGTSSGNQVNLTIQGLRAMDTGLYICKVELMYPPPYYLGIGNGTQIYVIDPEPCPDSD

| Binder | Kd [nM] |
| --- | --- |
| B1 | 28 |
| B3 | 4 |
| B4 | 2.6 |
| B2 | 13 |
| B5 | 7.5 |
| B6 | 6.6 |

biological target: T3, PD-1-His protein (UniProt Q15116 25-167); assay: SPR
T3 sequence (Q15116 25-167): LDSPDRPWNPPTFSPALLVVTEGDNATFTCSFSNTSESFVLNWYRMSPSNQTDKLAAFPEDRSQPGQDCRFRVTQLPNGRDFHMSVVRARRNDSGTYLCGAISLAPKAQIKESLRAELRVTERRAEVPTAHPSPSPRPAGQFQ

| Binder | Kd [nM] |
| --- | --- |
| B3 | 2.2 |
| B4 | 2.5 |
| B5 | 7.5 |
| B6 | 8.1 |

biological target: T4, biotin-labeled hCTLA-4/Fc protein (UniProt P16410 37-161, biotin label in the FACS competition assays (sites not given)); assay: FACS ligand competition (B7-1 cells)
T4 sequence (P16410 37-161): as the sequence (P16410 37-161) above

| Binder | EC50 [nM] |
| --- | --- |
| B2 | 41.9 |

biological target: T4, biotin-labeled hCTLA-4/Fc protein; assay: FACS ligand competition

| Binder | IC50 [nM] |
| --- | --- |
| B7 | 6.6 |
| B8 | 14.1 |
| B9 | 12.3 |
| B10 | 11.9 |

biological target: T5, human CTLA-4 expressed on CHO cells (UniProt P16410 37-223); assay: FACS cell binding
T5 sequence (P16410 37-223): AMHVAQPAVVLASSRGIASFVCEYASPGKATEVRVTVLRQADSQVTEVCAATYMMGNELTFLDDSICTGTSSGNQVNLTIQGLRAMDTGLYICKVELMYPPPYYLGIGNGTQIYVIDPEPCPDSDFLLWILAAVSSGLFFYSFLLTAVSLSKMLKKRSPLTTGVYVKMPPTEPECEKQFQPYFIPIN

| Binder | EC50 [nM] |
| --- | --- |
| B9 | 15.3 |
| B10 | 6.8 |

biological target: T2, CTLA-4-His protein; assay: SPR; remark: another data set of the same source

| Binder | Kd [nM] |
| --- | --- |
| B9 | 1.1 |
| B10 | 3 |

biological target: T1, human PD-1 expressed on CHO cells; assay: FACS cell binding

| Binder | EC50 [nM] |
| --- | --- |
| B3 | 1.6 |
| B4 | 1.6 |
| B5 | 2.2 |
| B6 | 1.7 |

biological target: T2, CTLA-4-His protein; assay: SPR; remark: another data set of the same source

| Binder | Kd [nM] |
| --- | --- |
| B1 | 28.4 |
| B2 | 13 |

biological target: T5, human CTLA-4 expressed on CHO cells; assay: FACS cell binding; remark: another data set of the same source

| Binder | EC50 [nM] |
| --- | --- |
| B3 | 3 |
| B4 | 3.9 |
| B5 | 3 |
| B6 | 2.7 |

biological target: CTLA-4/Fc; assay: SPR

| Binder | Kd [nM] |
| --- | --- |
| B11 | 2.95 |
| B12 | 4.96 |

biological target: T4, biotin-labeled hCTLA-4/Fc protein; assay: FACS ligand competition (B7-1 cells); remark: another data set of the same source

| Binder | IC50 [nM] |
| --- | --- |
| B7 | 6.6 |
| B8 | 14.1 |

biological target: T3, PD-1-His protein; assay: SPR; remark: another data set of the same source

| Binder | Kd [nM] |
| --- | --- |
| B1 | 7.63 |
| B2 | 11.1 |

biological target: hPD-1-Fc fusion protein having a biotin label (human, UniProt Q15116 25-167, biotin label (sites not given)); assay: FACS ligand competition
Sequence (Q15116 25-167): as the sequence (Q15116 25-167) above

| Binder | IC50 [nM] |
| --- | --- |
| B3 | 1.5 |
| B4 | 2.6 |
| B5 | 1.1 |
| B6 | 4.8 |

biological target: T4, biotin-labeled hCTLA-4/Fc protein; assay: FACS ligand competition; remark: another data set of the same source

| Binder | IC50 [nM] |
| --- | --- |
| B3 | 11.7 |
| B4 | 17.2 |
| B5 | 11.5 |
| B6 | 7.1 |
